± gives the standard deviation of the averaged measurements.
Key:
[1] = test system: Saccharomyces cerevisiae; test: protein stability index of tFT-peptide fusion in wild type (PSI (0-1 scale)); higher = more stable (slower turnover); settings: genetic background: wild type
[2] = test system: Saccharomyces cerevisiae; test: protein stability index of tFT-peptide fusion in deletion strain of DOA10 (PSI (0-1 scale)); higher = more stable (slower turnover)
Protocol: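 MPS profiling in S. cerevisiae of two library types built from selected 12-aa C-degron peptides (IN1, IN2, LN1, LN3, VN2, R1-R5, W1-W3, Atg1 and Rpa12 C-termini): saturation mutagenesis libraries and C-terminal +1 capping libraries (13 aa). Each peptide is fused to the C-terminus of a sfGFP-mCherry timer, after a GGGS linker. Cells are FACS-sorted into 8 mCherry/sfGFP bins and sequenced. PSI runs from 0 (unstable) to 1 (stable), measured once in wild type and in the das1Δ or doa10Δ background.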

[3] = test system: Saccharomyces cerevisiae; test: protein stability index of tFT-peptide fusion (C-terminal peptide) (PSI (0-1 scale)); higher = more stable (slower turnover); settings: genetic background: wild type; temperature: 30 C
[4] = test system: Saccharomyces cerevisiae; test: as above
Protocol: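 MPS profiling in S. cerevisiae of the tFT-X12 degron library: putative degron peptides plus stable controls, 12 aa, fused to the C-terminus of a sfGFP-mCherry timer. Cells are FACS-sorted into 8 mCherry/sfGFP bins and deep-sequenced. PSI runs from 0 (unstable) to 1 (stable). Backgrounds are wild type, das1Δ and doa10Δ at 30 °C, and wild type, das1Δ, cdc34-1 and cdc53-1 at 37 °C; 2-3 technical replicates each.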
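Wherever protein stability index of tFT-peptide fusion (C-terminal peptide) is given: PSI is a weighted mean of sequencing reads over stability bins, variants kept only with over 10 reads, mCherry proximal and sfGFP distal, peptide attached via GGGS linker.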
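Wherever protein stability index of tFT-peptide fusion in deletion strain of DOA10 is given: PSI per variant is the weighted mean of its sequencing read distribution over the sorted stability bins, counting only variants with over 10 reads summed across bins.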
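Wherever protein stability index of tFT-peptide fusion in wild type is given: PSI derived as read-weighted mean over the 8 sorting bins, only variants exceeding 10 total reads kept, mCherry placed adjacent to the peptide and sfGFP distal.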

Row | Sequence | protein stability index [1] | protein stability index [2] | also measured
1 | CQVSLPILLFFR | 0.0497 | 0.631 | –
2 | GKYMCSVGCWFR | 0.406 | 0.674 | –
3 | GLYICSVGCWFR | 0.181 | 0.539 | –
4 | GLYLCSVGCWFR | 0.21 | 0.575 | –
5 | GLYMCNVGCWFR | 0.385 | 0.676 | –
6 | GLYMCPVGCWFR | 0.26 | 0.664 | –
7 | GLYMCSFGCWFR | 0.239 | 0.665 | –
8 | GLYMCSHGCWFR | 0.435 | 0.695 | –
9 | GLYMCSVCCWFR | 0.47 | 0.548 | –
10 | GLYMCSVDCWFR | 0.574 | 0.615 | –
11 | GLYMCSVGCWFF | 0.473 | 0.532 | –
12 | GLYMCSVGCWFK | 0.291 | 0.628 | –
13 | GLYMCSVGCWFRF | 0.166 | 0.636 | –
14 | GLYMCSVGCWFRN | 0.286 | 0.584 | –
15 | GLYMCSVGCWFS | 0.381 | 0.445 | –
16 | GLYMCSVGCWVR | 0.215 | 0.341 | –
17 | GLYMCSVGGWFR | 0.644 | 0.674 | –
18 | GLYMCSVGHWFR | 0.656 | 0.679 | –
19 | GLYMCSVGSWFR | 0.634 | 0.69 | –
20 | GLYMCSVYCWFR | 0.255 | 0.374 | –
21 | GLYMHSVGCWFR | 0.255 | 0.706 | –

Row | Sequence | protein stability index [1] | protein stability index [2] | also measured
22 | GLYMLSVGCWFR | 0.246 | 0.464 | –
23 | GSLRVLLPLYFR | 0.242 | 0.685 | –
24 | HLYMCSVGCWFR | 0.401 | 0.63 | –
25 | LLVSLPILLFFR | 0.0951 | 0.561 | –
26 | PLVSLPILLFFR | 0.138 | 0.661 | –
27 | QLYMCSVGCWFR | 0.368 | 0.625 | –
28 | RDTRLDAIYFRI | 0.563 | 0.644 | –
29 | RFTRLDAIYFRI | 0.378 | 0.656 | –
30 | RITRLDAIYFRI | 0.397 | 0.673 | –
31 | RMLRVLLPLYFR | 0.359 | 0.656 | –
32 | RNLRVLLPLYFR | 0.302 | 0.682 | –
33 | RSLGVLLPLYFR | 0.321 | 0.691 | –
34 | RSLRMLLPLYFR | 0.376 | 0.615 | –
35 | RSLRVHLPLYFR | 0.157 | 0.67 | –
36 | RSLRVILPLYFR | 0.197 | 0.675 | –
37 | RSLRVLLKLYFR | 0.417 | 0.616 | –
38 | RSLRVLLPLKFR | 0.431 | 0.67 | –
39 | RSLRVLLPLRFR | 0.41 | 0.661 | –
40 | RSLRVLLPLYAR | 0.348 | 0.474 | –
41 | RSLRVLLPLYFD | 0.491 | 0.63 | –
42 | RSLRVLLPLYFI | 0.255 | 0.528 | –

Row | Sequence | protein stability index [1] | protein stability index [2] | also measured
43 | RSLRVLLPLYFK | 0.25 | 0.633 | –
44 | RSLRVLLPLYFM | 0.328 | 0.42 | –
45 | RSLRVLLPLYFQ | 0.431 | 0.615 | –
46 | RSLRVLLPLYFRA | 0.244 | 0.593 | –
47 | RSLRVLLPLYFRI | 0.184 | 0.484 | –
48 | RSLRVLLPLYFRT | 0.268 | 0.655 | –
49 | RSLRVLLPLYFS | 0.246 | 0.352 | –
50 | RSLRVLLPLYFT | 0.265 | 0.478 | –
51 | RSLRVLLPLYKR | 0.602 | 0.662 | –
52 | RSLRVLLPSYFR | 0.65 | 0.668 | –
53 | RSLRVLLRLYFR | 0.391 | 0.625 | –
54 | RSLRVLLSLYFR | 0.452 | 0.643 | –
55 | RSLRVLLVLYFR | 0.269 | 0.389 | –
56 | RSLRVLRPLYFR | 0.257 | 0.684 | –
57 | RSLRVLYPLYFR | 0.279 | 0.67 | –
58 | RSLRVYLPLYFR | 0.268 | 0.678 | –
59 | RSLRWLLPLYFR | 0.427 | 0.642 | –
60 | RSLRYLLPLYFR | 0.378 | 0.671 | –
61 | RVPRLDAIYFRI | 0.389 | 0.669 | –
62 | RVTDLDAIYFRI | 0.636 | 0.678 | –
63 | RVTLLDAIYFRI | 0.455 | 0.662 | –

Row | Sequence | protein stability index [1] | protein stability index [2] | also measured
64 | RVTRGDAIYFRI | 0.553 | 0.693 | –
65 | RVTRKDAIYFRI | 0.564 | 0.664 | –
66 | RVTRLDAGYFRI | 0.673 | 0.702 | –
67 | RVTRLDAIKFRI | 0.66 | 0.685 | –
68 | RVTRLDAISFRI | 0.691 | 0.727 | –
69 | RVTRLDAIWFRI | 0.22 | 0.676 | –
70 | RVTRLDAIYFQI | 0.292 | 0.305 | –
71 | RVTRLDAIYFRI | 0.328 | 0.681 | protein stability index [3]: 0.381 ± 0.019; protein stability index ([4]; genetic background: cdc34-1, temperature: 37 C): 0.265 ± 0.06; protein stability index ([4]; genetic background: cdc53-1, temperature: 37 C): 0.198 ± 0.0072; protein stability index ([4]; genetic background: das1 deletion, temperature: 30 C): 0.341 ± 0.031; protein stability index ([4]; genetic background: das1 deletion, temperature: 37 C): 0.351 ± 0.012; protein stability index ([4]; genetic background: doa10 deletion, temperature: 30 C): 0.717 ± 0.03; protein stability index ([4]; genetic background: wild type, temperature: 30 C): 0.312 ± 0.014; protein stability index ([4]; genetic background: wild type, temperature: 37 C): 0.323 ± 0.0054
72 | RVTRLDAIYFRIW | 0.234 | 0.577 | –
73 | RVTRLDAIYFRL | 0.395 | 0.7 | –
74 | RVTRLDAIYFRQ | 0.533 | 0.589 | –
75 | RVTRLDAIYPRI | 0.693 | 0.731 | –
76 | RVTRLDAVYFRI | 0.442 | 0.68 | –
77 | RVTRLDAWYFRI | 0.678 | 0.717 | –
78 | RVTRLDKIYFRI | 0.283 | 0.51 | –
79 | RVTRLMAIYFRI | 0.155 | 0.295 | –
80 | RVTRSDAIYFRI | 0.525 | 0.695 | –
81 | RWLRVLLPLYFR | 0.402 | 0.682 | –
82 | WLYMCSVGCWFR | 0.302 | 0.633 | –

Source: the supplement of paper PMC10724198
